The target of this test is T1, IFNAR on 38C13 cells (murine, UniProt P33896 27-590; O35664 22-513).
T1 sequence (looked up) 1: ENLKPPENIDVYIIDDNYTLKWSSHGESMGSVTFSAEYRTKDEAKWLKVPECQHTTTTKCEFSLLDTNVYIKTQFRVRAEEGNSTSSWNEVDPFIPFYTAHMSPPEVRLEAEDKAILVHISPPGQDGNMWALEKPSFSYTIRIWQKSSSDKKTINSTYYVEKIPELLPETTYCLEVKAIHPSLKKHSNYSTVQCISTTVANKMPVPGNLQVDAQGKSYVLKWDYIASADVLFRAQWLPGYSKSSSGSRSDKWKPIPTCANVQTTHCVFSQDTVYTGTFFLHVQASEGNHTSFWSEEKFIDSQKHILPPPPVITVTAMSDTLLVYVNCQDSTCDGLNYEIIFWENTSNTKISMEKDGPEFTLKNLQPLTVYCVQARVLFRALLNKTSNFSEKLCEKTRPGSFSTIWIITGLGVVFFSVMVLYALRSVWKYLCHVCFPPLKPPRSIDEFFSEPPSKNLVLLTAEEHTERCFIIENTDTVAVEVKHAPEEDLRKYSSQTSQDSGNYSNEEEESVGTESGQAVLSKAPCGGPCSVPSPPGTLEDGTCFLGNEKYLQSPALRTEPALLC
T1 sequence (looked up) 2: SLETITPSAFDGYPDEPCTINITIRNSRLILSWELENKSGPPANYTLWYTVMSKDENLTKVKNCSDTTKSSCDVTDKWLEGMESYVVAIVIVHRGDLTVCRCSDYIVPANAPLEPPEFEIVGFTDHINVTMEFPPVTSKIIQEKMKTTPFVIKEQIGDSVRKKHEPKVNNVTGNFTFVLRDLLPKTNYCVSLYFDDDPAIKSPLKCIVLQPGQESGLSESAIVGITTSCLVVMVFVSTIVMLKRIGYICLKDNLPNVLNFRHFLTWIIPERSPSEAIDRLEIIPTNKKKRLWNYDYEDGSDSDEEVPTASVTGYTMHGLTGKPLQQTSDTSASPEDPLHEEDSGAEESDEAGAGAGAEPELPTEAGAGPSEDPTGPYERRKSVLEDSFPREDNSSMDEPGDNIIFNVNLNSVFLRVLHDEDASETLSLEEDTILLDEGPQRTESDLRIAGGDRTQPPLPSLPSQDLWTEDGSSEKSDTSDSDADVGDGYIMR
Nature of the test: cell-based or functional assay.

B1: anti-CD20/IgG3-mu-IFN-α (other)
heavy: QVQLQQPGAELVKPGASVKMSCKASGYTFTSYNMHWVKQTPGRGLEWIGAIYPGNGDTSYNQKFKGKATLTADKSSSTAYMQLSSLTSEDSAVYYCARSTYYGGDWYFNVWGAGTTVTVSAASTKGPSVFPLAPCSRSTSGGTAALGCLVKDYFPEPVTVSWNSGALTSGVHTFPAVLQSSGLYSLSSVVTVPSSSLGTQTYTCNVNHKPSNTKVDKRVELKTPLGDTTHTCPRCPEPKSCDTPPPCPRCPEPKSCDTPPPCPRCPEPKSCDTPPPCPRCPAPELLGGPSVFLFPPKPKDTLMISRTPEVTCVVVDVSHEDPEVQFKWYVDGVEVHNAKTKLREEQYNSTFRVVSVLTVLHQDWLNGKEYKCKVSNKALPAPIEKTISKAKGQPREPQVYTLPPSREEMTKNQVSLTCLVKGFYPSDIAVEWESNGQPENNYNTTPPMLDSDGSFFLYSKLTVDKSRWQQGNIFSCSVMHEALHNHYTQKSLSLSPGKSGGGGSCDLPQTHNLRNKRALTLLVQMRRLSPLSCLKDRKDFGFPQEKVDAQQIKKAQAIPVLSELTQQILNIFTSKDSSAAWNATLLDSFCNDLHQQLNDLQGCLMQQVGVQEFPLTQEDALLAVRKYFHRITVYLREKKHSPCAWEVVRAEVWRALSSSANVLGRLREEK
light: QIVLSQSPAILSASPGEKVTMTCRASSSVSYIHWFQQKPGSSPKPWIYATSNLASGVPVRFSGSGSGTSYSLTISRVEAEDAATYYCQQWTSNPPTFGGGTKLEIK
For the molecule B1, the “IC50 (pM) 38C13-CD20, cell viability, MTS assay” value was 76.4 pM and the “IC50 (pM) 38C13-CD20-IFNR Knock Down, cell viability, MTS assay” value came out at 848 pM.

These data come from patent US20110104112A1 (University of California, published 2011).
